# Patent US20170202915A1 (TUFTS UNIVERSITY, published 2017)
# What was measured:
# [1] = biological target: T1, VEGFR-1 (UniProt P17948 27-1338, limits assumed); assay: galectin-agarose pulldown from primary LECs, western blot (FIG. 21A)
# T1 construct: whole, on cells
# Protocol: Primary LECs were incubated with agarose beads (control), and galectin-conjugated agarose beads at 4° C. overnight. Unbound proteins were removed and the bound proteins were eluted with 20 μL of 2× Laemmli sample buffer and analyzed and compared to control input by western blotting. […] LEC lysates incubated with unconjugated beads served as a negative control.
# [2] = biological target: T2, recombinant galectin-3 (UniProt P17931 2-250); assay: galectin-agarose pulldown from LEC lysates, anti-PDPN western blot (FIG. 7A)
# T2 construct: also called Gal-3
# T2 sequence (P17931 2-250 limits assumed): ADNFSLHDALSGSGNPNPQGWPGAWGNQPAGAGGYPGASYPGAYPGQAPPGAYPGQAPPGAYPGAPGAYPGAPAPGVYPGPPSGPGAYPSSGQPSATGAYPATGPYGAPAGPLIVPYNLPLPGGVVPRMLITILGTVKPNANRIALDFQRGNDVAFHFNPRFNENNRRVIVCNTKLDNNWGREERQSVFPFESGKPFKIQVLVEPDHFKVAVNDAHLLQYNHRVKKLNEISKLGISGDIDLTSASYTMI
# Protocol: Bound proteins were examined and were compared to total cell lysates (input) by western blot using anti-PDPN. […] Primary LECs were transfected with control (mock) or two siRNA that targeted different regions of PDPN. Knockdown efficiency was assessed by western blot using anti-PDPN and anti-β-actin antibodies. […] Primary LECs were transfected with control or PDPN siRNA. […] Data are plotted as mean±SEM and analyzed using Student's t test (FIG. 7C and FIG. 7F). *P<0.05, ***P<0.001 vs corresponding control.
# Bound proteins were examined with total cell lysates (input) by western blot using an anti-PDPN antibody.
# T1 sequence (P17948 27-1338 limits assumed): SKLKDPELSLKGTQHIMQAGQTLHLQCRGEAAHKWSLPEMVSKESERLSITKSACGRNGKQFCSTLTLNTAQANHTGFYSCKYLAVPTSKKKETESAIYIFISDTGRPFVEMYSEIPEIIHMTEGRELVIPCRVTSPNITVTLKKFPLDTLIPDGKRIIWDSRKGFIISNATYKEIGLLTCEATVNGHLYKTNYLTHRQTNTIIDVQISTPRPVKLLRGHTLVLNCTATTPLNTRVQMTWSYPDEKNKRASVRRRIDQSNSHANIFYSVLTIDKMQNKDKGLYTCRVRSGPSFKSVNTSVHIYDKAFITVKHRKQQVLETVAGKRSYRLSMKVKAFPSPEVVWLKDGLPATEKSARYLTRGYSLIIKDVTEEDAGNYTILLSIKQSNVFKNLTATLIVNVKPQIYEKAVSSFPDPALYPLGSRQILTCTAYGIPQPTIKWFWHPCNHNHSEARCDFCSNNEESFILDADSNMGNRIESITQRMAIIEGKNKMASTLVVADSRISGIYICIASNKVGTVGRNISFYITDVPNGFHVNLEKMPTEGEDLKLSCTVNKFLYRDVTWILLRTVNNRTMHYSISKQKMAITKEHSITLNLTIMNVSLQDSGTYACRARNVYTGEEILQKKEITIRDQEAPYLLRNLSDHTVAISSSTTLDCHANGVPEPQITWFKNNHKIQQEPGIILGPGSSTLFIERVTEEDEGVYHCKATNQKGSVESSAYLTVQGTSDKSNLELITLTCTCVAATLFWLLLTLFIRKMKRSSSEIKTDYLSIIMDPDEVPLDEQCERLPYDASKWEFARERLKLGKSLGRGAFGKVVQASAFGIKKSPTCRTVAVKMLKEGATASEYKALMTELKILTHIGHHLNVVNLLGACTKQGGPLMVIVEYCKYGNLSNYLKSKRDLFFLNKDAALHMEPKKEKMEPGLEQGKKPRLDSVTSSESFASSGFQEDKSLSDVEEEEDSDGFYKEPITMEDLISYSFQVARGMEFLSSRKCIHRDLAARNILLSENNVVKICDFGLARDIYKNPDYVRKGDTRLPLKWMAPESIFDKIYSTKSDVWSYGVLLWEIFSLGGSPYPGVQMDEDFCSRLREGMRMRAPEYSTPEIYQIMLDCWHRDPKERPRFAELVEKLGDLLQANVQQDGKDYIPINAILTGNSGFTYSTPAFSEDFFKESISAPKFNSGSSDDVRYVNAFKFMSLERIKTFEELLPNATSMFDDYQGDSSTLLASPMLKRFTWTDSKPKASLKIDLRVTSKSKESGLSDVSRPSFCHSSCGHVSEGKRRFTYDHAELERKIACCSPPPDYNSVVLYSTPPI
binding result [1],binding result [2],Binder
no binding,–,"recombinant full-length galectin-8 (other, UniProt O00214 1-317, looked up, mature; Tandem-repeat lectin with an N-CRD and a C-CRD; also called Gal-8; exogenous Gal-8) MMLSLNNLQNIIYNPVIPFVGTIPDQLDPGTLIVIRGHVPSDADRFQVDLQNGSSMKPRADVAFHFNPRFKRAGCIVCNTLINEKWGREEITYDTPFKREKSFEIVIMVLKDKFQVAVNGKHTLLYGHRIGPEKIDTLGIYGKVNIHSIGFSFSSDLQSTQASSLELTEISRENVPKSGTPQLRLPFAARLNTPMGPGRTVVVKGEVNANAKSFNVDLLAGKSKDIALHLNPRLNIKAFVRNSFLQESWGEEERNITSFPFSPGMYFEMIIYCDVREFKVAVNGVHSLEYKHRFKELSSIDTLEINGDIHLLEVRSW"
–,no binding,"podoplanin (receptor, human, UniProt Q86YL7 23-162, looked up, O-glycosylated with alpha2,3-sialyl glycans, whole, on cells; Endogenous protein from LEC lysates in the pulldowns and co-immunoprecipitation; also called PDPN) ASTGQPEDDTETTGLEGGVAMPGAEDDVVTPGTSEDRYKSGLTTLVATSVNSVTGIRIEDLPTSESTVHAQEQSPSATASNVATSHSTEKVDGDTQTTVEKDGLSTVTLVGIIVGVLLAIGFIGAIIVVVMRKMSGRYSP"
